Series [1] concerns CCCC(=O)SCCNC(=O)CCNC(=O)[C@H](O)C(C)(C)COP(=O)(O)OP(=O)(O)OC[C@H]1O[C@@H](n2cnc3c(N)ncnc32)[C@H](O)[C@@H]1OP(=O)(O)O. Put plainly: purified protein, by the assay type. Particulars: other: KM of the starter acyl-CoA, 200 μM methylmalonyl-CoA, 500 μM NADPH, 0.5 μM LipPks1+TE, pH 7.2, 23° C.
Series [2] has as its system CC(C)(C)C(=O)SCCNC(=O)CCNC(=O)[C@H](O)C(C)(C)COP(=O)(O)OP(=O)(O)OC[C@H]1O[C@@H](n2cnc3c(N)ncnc32)[C@H](O)[C@@H]1OP(=O)(O)O. Put plainly: Steady-state kinetic analysis of LipPks1+TE, starter substrates (LC-MS quantification of products 1a-f). The format is biochemical, Streptomyces aureofaciens Tü117. Particulars: other: KM of the starter acyl-CoA, 200 μM methylmalonyl-CoA, 500 μM NADPH, 0.5 μM LipPks1+TE, pH 7.2, 23° C.
Experimental: (§1) A Bradford protein assay was used to measure the concentration of LipPks1+TE. […] Each time point was set up in a reaction volume of 75 μL. Samples containing 20 μM, 40 μM, 80 μM, 160 μM, or 320 μM of acyl-CoA were individually incubated with 200 μM methymalonyl-CoA and 500 μM NADPH in the presence of 0.5 μM LipPks1+TE in 100 mM phosphate buffer, pH 7.2, containing 2.5 mM TCEP at 23° C. The reactions were quenched at different time points by adding 75 μL of methanol and subsequently filtered with an Amicon Ultra-0.5 mL Centrifugal Filter, 3K device (Millipore) at 23° C. 10 μL of the resulting solutions were analyzed by liquid chromatography-mass spectrometry (LC-MS). […] We assumed that ionization efficiencies of diastereomers were identical.
(§2) LC separation of the enzymatically generated products conducted at 50° C. with an Inertsil ODS-3 reverse-phase column (250 mm length, 2.1 mm internal diameter, 3 μM particle size; GL Sciences) using a 1100 series high-performance liquid chromatography system (Agilent Technologies). The mobile phase was composed of 0.2% formic acid in water (solvent A) and 0.2% formic acid in methanol (solvent B). Products were separated using the following gradient: 60% to 100% B for 10 min, held at 100% B for 2 min, 100% to 60% B for 1 min, held at 60% B for 17 min. A flow rate of 0.14 mL/min was used throughout.
(§3) The LC system was coupled to an Agilent Technologies LC-MSD SL electrospray ionization mass (ESI MS) spectrometer. Nitrogen gas was used as both the nebulizing and drying gas to facilitate the production of gas-phase ions. The drying and nebulizing gases were set to 10 L/min and 20 lb/in2, respectively, and a drying gas temperature of 300° C. was used throughout. ESI was conducted in the negative-ion mode with a capillary voltage of 4 kV. […] The instrument was tuned for a range of m/z 50 to 3000 via the Agilent ES tuning mix. Data acquisition and processing were performed by an Agilent Chemstation (Agilent Technologies; Santa Clara, Calif.).

For series [3], the system named is CC(C)C(=O)SCCNC(=O)CCNC(=O)[C@H](O)C(C)(C)COP(=O)(O)OP(=O)(O)OC[C@H]1O[C@@H](n2cnc3c(N)ncnc32)[C@H](O)[C@@H]1OP(=O)(O)O. Described as above. The format is biochemical, Streptomyces aureofaciens Tü117. Particulars: other: KM of the starter acyl-CoA, 200 μM methylmalonyl-CoA, 500 μM NADPH, 0.5 μM LipPks1+TE, pH 7.2, 23° C.
Experimental: as §1, §2, §3
Series [4] relates to CC(C)CC(=O)SCCNC(=O)CCNC(=O)[C@H](O)C(C)(C)COP(=O)(O)OP(=O)(O)OC[C@H]1O[C@@H](n2cnc3c(N)ncnc32)[C@H](O)[C@@H]1OP(=O)(O)O. The series is described as above. The format is biochemical, Streptomyces aureofaciens Tü117. Particulars: other: KM of the starter acyl-CoA, 200 μM methylmalonyl-CoA, 500 μM NADPH, 0.5 μM LipPks1+TE, pH 7.2, 23° C.
Experimental: as §1, §2, §3
Series [5] concerns CCC(=O)SCCNC(=O)CCNC(=O)[C@H](O)C(C)(C)COP(=O)(O)OP(=O)(O)OC[C@H]1O[C@@H](n2cnc3c(N)ncnc32)[C@H](O)[C@@H]1OP(=O)(O)O. The series is described as above. The format is biochemical, Streptomyces aureofaciens Tü117. Particulars: other: KM of the starter acyl-CoA, 200 μM methylmalonyl-CoA, 500 μM NADPH, 0.5 μM LipPks1+TE, pH 7.2, 23° C.
Experimental: as §1, §2, §3
Series [6] has as its target T1, LipPks1+TE (Kitasatospora aureofaciens, UniProt Q30CS2). The series is described as above. It is filed as biochemical, Streptomyces aureofaciens Tü117.
Experimental: as §1, §2, §3
The target in series [7] is T1, LipPks1+TE. Put plainly: Steady-state kinetic analysis of LipPks1+TE, extension substrate. Particulars: tested as potential extender substrate (data not shown). It is filed as biochemical, Streptomyces aureofaciens Tü117. The method, then:
Each time point was set up in a reaction volume of 75 μL. Samples containing 10 μM, 20 μM, or 40 μM methylmalonyl-CoA were individually incubated with 500 μM isovaleryl-CoA and 500 μM NADPH in the presence of 0.5 μM LipPks1+TE in 100 mM phosphate buffer, pH 7.2, containing 2.5 mM TCEP at 23° C. The reactions were quenched at different time points by adding 75 μL of methanol and subsequently filtered with an Amicon Ultra-0.5 mL Centrifugal Filter, 3K device (Millipore) at 23° C. 10 μL of the resulting solutions were analyzed by LC-MS. Authentic standard 1e was used to quantify the products in the LC-MS analysis. We assumed that ionization efficiencies of diastereomers were identical.
LC separation of the enzymatically generated products conducted at 50° C. with an Inertsil ODS-3 reverse-phase column (250 mm length, 2.1 mm internal diameter, […] particle size; GL Sciences) using a 1100 series high-performance liquid chromatography system (Agilent Technologies). The mobile phase was composed of 0.2% formic acid in water (solvent A) and 0.2% formic acid in methanol (solvent B). Products were separated using the following gradient: 60% to 100% B for 10 min, held at 100% B for 2 min, 100% to 60% B for 1 min, held at 60% B for 17 min. A flow rate of 0.14 mL/min was used throughout. […]

Broadly, the Km is the substrate concentration at which the rate is half of its maximum. What is called kcat is the maximal rate divided by the concentration of active sites. A word on the kcat/Km: it is the second-order rate constant that governs catalysis at low substrate concentration.

As to LipPks1+TE (Kitasatospora aureofaciens), the Km in series [1] was found to be 26.4 µM; in series [2], 8.8 µM; in series [3], 2.9 µM; in series [4], 128.1 µM; in series [5] it was 13.4 µM. Moreover, the kcat worked out at 0.0006 s⁻¹ in series [1]; 3.33e-05 s⁻¹ in series [2]; 0.000883 s⁻¹ in series [3]; 0.00483 s⁻¹ in series [4]; 0.000933 s⁻¹ in series [5]. Also, the kcat/Km in series [1] was 22.7 M⁻¹ s⁻¹; in series [2] it was 4.1 M⁻¹ s⁻¹; in series [3], 304.1 M⁻¹ s⁻¹; in series [4] it was 38 M⁻¹ s⁻¹; in series [5], 70.3 M⁻¹ s⁻¹.
In the case of `CC(=O)SCCNC(=O)CCNC(=O)[C@H](O)C(C)(C)COP(=O)(O)OP(=O)(O)OC[C@H]1O[C@@H](n2cnc3c(N)ncnc32)[C@H](O)[C@@H]1OP(=O)(O)O` [acetyl-CoA], the “product formation with starter substrate” value at LipPks1+TE [6] (200 μM methylmalonyl-CoA with NADPH (data not shown)) was “No product was observed”.
With `CC(C)C(=O)SCCNC(=O)CCNC(=O)[C@H](O)C(C)(C)COP(=O)(O)OP(=O)(O)OC[C@H]1O[C@@H](n2cnc3c(N)ncnc32)[C@H](O)[C@@H]1OP(=O)(O)O` [isobutyryl-CoA], the kcat at LipPks1+TE [6] (starter acyl-CoA 20-320 μM, 200 μM methylmalonyl-CoA, 500 μM NADPH, 0.5 μM LipPks1+TE, pH 7.2, 23° C.) was 0.000883 s⁻¹.
On to `CC(C)(COP(=O)(O)OP(=O)(O)OC[C@H]1O[C@@H](n2cnc3c(N)ncnc32)[C@H](O)[C@@H]1OP(=O)(O)O)[C@@H](O)C(=O)NCCC(=O)NCCSC(=O)CC(=O)O` [Malonyl-CoA], for which the “acceptance as extender substrate by the AT domain” value at LipPks1+TE [7] was “not accepted”.

For the origin of these results see patent publication US11746336B2, “Producing 3-hydroxycarboxylic acid and ketone using polyketide synthases” (The Regents of the University of California, priority 2014, dated 2023).
